The DeepSol protein solubility set

experiment: soluble on expression in E. coli; label from the status in PepcDB or PDB records

Row | Sequence | soluble on expression in E. coli
1 | MGSDKIHHHHHHMSLPAQLRVLEVVQSLEKGGRTTRFTDTVAGLRAQKIFTVPLCISKPESWVSIPDLEVLHKTAGINWKLVFQIRKKIIKNNINLIHAHCEFSQLYASIAGVTCGIKTVATFHRSDLSKYQPNMVNKLIKLFASHFVAVSHDRLSLLTNNLKLPLNKCHVVHGGSVIEKKPTVTSINKARADLGIPLDQLMLLSIGHLGEIKGHQDTLVALSKFTKTMPALHLYIAGDGAAQEKQKLTELVNKLQINENVTFLGQINNAFSWLEACDIFIQPSVEEAFGLVFVEAGAKAKPVIATTVGGIKEIIVSKETGLLVLPSSPKAVEHALAILINSPPLRQQYGENGYKRITEHFSLTNMVNKYTDIFNQAVN | not soluble
2 | MLDEKASEEEIKAMFLMLSGGLKSQPGEDEKATAVAYLFSLDGLSRWAIKTATRDVMKGKAEGLSTTFMPASADLLLYCEKLEDDIRTTVKGIFTSLDRPEIKPKGEPISAEKWDKLMQMLEKPKIGLNPFQ | not soluble
3 | MAHHHHHHMLSTACRAPVRGRAYCGCNRGLVSFSFYSTFAGDRRGAGGDETSGANSGGSGDSGETPKASKATVEERRRMAKSWENAFFGRVHYEPGMHDRYQAALDAEVEEHATLDEKDRCDRLPNWPDDEETPLHEFLQLSDAAKKRYIVRRLTMGERRINYAPYYGSLLMMQHLNLGELMISDAEHLVRESGWMTECVASKIEAVRECASKIKFEYDLD | not soluble
4 | MAHHHHHHMSSKGAAMTPNGNGATHESRPGKKGRPPRRRADREAAGAHFDCGSSQTTEKGGDEYQYKHPKPRVLTSSLFMWEHVAVFSMPAQVAELERVSRDVARLLEDSNTGTHPMQRYWNAQWSRMVWREEELPDEKKYLAPTMLTRSDGKRKWKNVFVQEYPLYLKRVYQGKGVCNNAVNAAKVLFNRQVLNAAKTAAELERMELTVEEARVKEQKKRGVDVEFEETPDTAPSPPWLGCHHGSYPEKGERERHEKGRPRAVKKASHETYTRSDYKEDYRTGDRKGKHKKGGTGRWSKFDDFGDYDY | not soluble
5 | MGSDKIHHHHHHAMSNKPVVLQGQIEATEIRISGKLPGRIDTFLVREGQYVKMGDTLVVINSPEAWAKFQQVNALEDIAKFQNKKIDDGTRRQIVRSVEELWNKSKSDLQLATVTYDRIQALYKDSVVTSQRKDEVEAMYKAAVAAERAAHQQFLLVKDGAQKEDKESARSLVDAARGTVNEVQALLMDARLTAPEDGQISTIYPKRGELVGAGTPIMSLVVLDDCHVVLNVREDYMPYFRMNENFMGDIPALDVKNKAFKINYISPLGSFATWRSTKQTGTYDMKTFEIHALPVEPMEGLRPGMSVLVNLDELK | not soluble
6 | MMNTNTTNNTVLLFTFNNIQGRGLQTAIEQNLEKPVLLTQGADVNLPSTRDEHYVAIVDSSLPELPEVKQTLSELEHVDATVLVNAEPNLRIESLLTWSNLKGLFYFEDDFDKVMMGLKGILNGENWLSRDILN | not soluble
7 | MGSDKIHHHHHHMTHQNSPLFLKSALRLYNRASFKASHKVIEEYSTSFSLSTWLLSPRIRNDIRNLYAVVRIADEIVDGTAHAAGCSTAKIEEILDAYEIAVLAAPQQRFNTDLVLQAYGETARRCDFEQEHVIAFFASMRKDLKANTHDPDSFTTYVYGSAEVIGLLCLSVFNQGRTISKKRLEIMQNGARSLGAAFQKINFLRDLAEDQQNLGRFYFPKTSQGTLTKEQKEDLIADIRQDLAIAHDAFPEIPVQARIGVISAYLLFQKLTDRIEATPTADLLRERIRVPLHIKLSTLARATMKGLSMSIYRKNS | not soluble
8 | MGSDKIHHHHHHMQFGKTDTPEDIDFTLPKDHPDTKKILSEAKPGKHFNVYVGCAKWNKTDLKNFYPKGTKDELQYYATQFNSIELNATFYKSPSKDQVQTWKAKAAKGFKFFPKIPNTISHFKRLVGVETIVEEFCDAVVLFEENLGMSFLQMHDNFKPKDMDKLDAFLKKFPASVPLAVELRNEEWYSDKNVQDDLHAMLVKYKKTFVLVDTAARRDIMHMRLTSDKAFIRYVGANHESDYARLDDWIKRIKTWRKEGLNELYFFVHQNVELESPLLSAYFIEKMNKEFDLDLTVPQTIKKKQ | not soluble
9 | MGSDKIHHHHHHAAIIFAFLYFTNNHKTDLESTISEQWNKITTFFSNDFSLPDTMSKLSTDNYKHEAGSRWSQNSASVYIASTDKTIVKAYQTALANWNATGSFTFNIISDKASADITAKDYSDVNSQAAGLAETETNAVTNRMSHVDVKLNRYYLLDASYGYSFDRIVHTAEHELGHAIGLDHDDKETSVMASSGSYNGIQTVDITAVKKLYAN | not soluble
10 | MDVRQVLHMKGGAGENSYAMNSFIQRQVISITKPITEAAITALYSGDTVTTRLAIADLGCSSGPNALFAVTELIKTVEELRKKMGRENSPEYQIFLNDLPGNDFNAIFRSLPIENDVDGVCFINGVPGSFYGRLFPRNTLHFIHSSYSLMWLSQVPIGIESNKGNIYMANTCPQSVLNAYYKQFQEDHALFLRCRAQEVVPGGRMVLTILGRRSEDRASTECCLIWQLLAMALNQMVSEGLIEEEKMDKFNIPQYTPSPTEVEAEILKEGSFLIDHIEASEIYWSSCTKDGDGGGSVEEEGYNVARCMRAVAEPLLLDHFGEAIIEDVFHRYKLLIIERMSKEKTKFINVIVSLIRKSD | soluble
11 | MGSSHHHHHHSSGRENLYFQGHMSCTTDKLIQKYDALVRKTTEHKFAKELCAGTLKDRSLYIYLSQDLQFFETSLRLICKTTSLAPTTHALITLAKKIGFFSNDENSYFHDCLELLAPSLTKEERDNFDNKAIPGVDAYINFLDELRKDASITWPSLVTSLWVAEELYWRWARDTPRAPGLHWKYQKWIDLHDGEHFQTWCEFLKAEVDKFPVEEVESIFVKVSQFEFEFFESCYNA | soluble
12 | MGSSHHHHHHSSGLVPRGSHMSQFSFTKMHGLGNSYIYVNMFEEQIPEEDLALVAEKVSNINTGIGADGMILICPSDVAPVKMRMFNNDGSEGKSCGNGLRCVAKYAYEHKLVEDTVFTIETLAGIVTAEVTVEEGKVTLAKIDMGAPRLTRAEIPMLGEGETPFIRENFLYNNHRYAFTAVSMGNPHAVIFVDDVEQAPLTTLGPVLETHEMFPERVNVEFIEILNEEEMNFRVWERGSGVTQACGTGACAAVVASILNGKMERGKEITVHLAGGDLMIAWTEEGNVLMKGPAEVICRGVYEYKIEA | soluble
13 | MAHHHHHHMYVFRFHISSFHSFLVNFLQPSRGVGEPSRLLDHLETHPSYMRRVTSTAVHRTVSSVLSPALLPSFNGTLLLSVCFASCSAAPVRNLYKRLGLDHKATSEEVKAAYRQRALECHPDVVDDNRKAQAEVDFRAVSEAYDVLIDPQKRKEHDKALGLERTVPPAKKQQEGEGVGCDSKGSFNRGVTRPRNRKPFVRGDADRNFREAFHGMSLDQVLFRERLRQRRMQKQMEEKAKEGDDGSPAGREESIRRVAAAAAERFAEKVRRQYGPGMLRHARVYTSLSRDPQPPPSDYMPFRPFHGWTVPNGVRTPPEPTLGPTAKVEDVKDVQLAEPAVGDASHQRKLPKHFPVVQAPDGSSLLREEAIACMERERRLPHNMGKLYSYHRPY | not soluble
14 | MYGEWGMGNILMMFHVYLVQGFRSEHGPVKDFSFERSSRSMLERSEQQIRAASSLEELLQIAHSEDWKLWRCRLKLKSLASMDSRSASHRSTRFAATFYDL | not soluble
15 | MGSDKIHHHHHHGETIDLGHDTTLDYSVTASYGAAVRTGTQSNTLLSPANINGDDGNRNFKRGDMTANRVSLLGEAHVKHDAFGALVRGSVFYDWAYSGTNSNNAPGTVNHSGPFNEFTGSARDYHESRAQLLDAYVYGAVPIESTQLSFKLGNQVVAWGESLFFANIAGAQGPADATKAFVPGAEVKDILLPVPQASVQWQVTPAFSLMGYYQFTFKPNQLFAPGSYFSTSDIVGPGAEFIIGPGFRIPRGPDISPSDWGQWGIGGRFRVFEDTEIGLYQLRYHDKNPSVVTSLFPTLQYQQKYFGGINLTGASFSTQLAGANVAGEVSYKDGVPMLVDVAGSPTASRGKALQAQLSAIYAIGPTFLANSQTLLGEIAYLHVIGVDSVMGFDKLSNTRNSAAFQVGWSLTYNNVFDGWDLTVPLTYAQQFSGNAAVAGAFGTLMGYGDKRASVGLTFKYLNNLELNLTYAAFIGGASIANRPLADRDYVAFNAKYSF | not soluble
16 | MTLLSPGIELKETTVQSTVVNNSTGTAALAGKFQWGPAFQIKQVTNEVDLVNTFGQPTAETADYFMSAMNFLQYGNDLRVVRAVDRDTAKNSSPIAGNIEYTISTPGSNYAVGDKITVKYVSDDIETEGKITEVDADGKIKKINIPTAKIIAKAKEVGEYPTLGSNWTAEISSSSSGLAAVITLGKIITDSGILLAEIENAEAAMTAVDFQANLKKYGIPGVVALYPGELGDKIEIEIVSKADYAKGASALLPIYPGGGTRASTAKAVFGYGPQTDSQYAIIVRRNDAIVQSVVLSTKRGGKDIYDSNIYIDDFFAKGGSEYIFATAQNWPEGFSGILTLSGGLSSNAEVTAGDLMEAWDFFADRESVDVQLFIAGSCAGESLETASTVQKHVVSIGDVRQDCLVLCSPPRETVVGIPVTRAVDNLVNWRTAAGSYTDNNFNISSTYAAIDGNYKYQYDKYNDVNRWVPLAADIAGLCARTDNVSQTWMSPAGYNRGQILNVIKLAIETP | soluble
17 | MSNDQSAMNELHWLIDMVQTIEVGLVVLDRDYNIQLWNGFMENHSGVSPNSIKGQNLFSRFPDLPATWLKQKMESVFMLKNRAFISWEQRPYVFQFKNYRPITGRADFMYQNVTLLPLASLTGKITHISVIVYDVTDIAVNKLEHHHHHH | soluble
18 | MGSDKIHHHHHHMMNVLRDGCSERGTARVGKHHDLKTVRWYVLTLPTTGVARRDKISPAKSLDAELSRRKRRGETLFEYFAPSYVEVRKVDGKMVNTKRPLLFNYVFIRSSVEEIFQMKRTLPLYNFLPRVSSGGMTHFPYLSDSEMGNLRWVAESYSNELPVYVPDSNRLLKGDRVRITSGYFTGMEAEVVIQPGGGHKDVMARILDCMWVPLLEVKPGEYELIELNTKGKHAYTHLDNDRLREGLHDALGRYHTSGSVAEEDTRLACEVLRSYGSLRAETDVMRCKIYSLLLSAYKLLGDEEEFTRLHDTMRGMLPVVKAPQSRALLLVTLYGCTDSALYRQMAHEVVDPWRGESSPKKSKLSLIRRLDDCDRWLRHNE | not soluble
19 | MKSPQAQQILDQARRLLYEKAMVKINGQYVGTVAAIPQSDHHDLNYTEVFIRDNVPVMIFLLLQNETEIVQNFLEICLTLQSKGFPTYGIFPTSFVETENHELKADYGQRAIGRVCSVDASLWWPILAYYYVQRTGNEAWARQTHVQLGLQKFLNLILHPVFRDAPTLFVPDGAFMIDRPMDVWGAPLEIQTLLYGALKSAAGLLLIDLKAKGYCSNKDHPFDSFTMEQSHQFNLSVDWLKKLRTYLLKHYWINCNIVQALRRRPTEQYGEEASNEHNVHTETIPNWLQDWLGDRGGYLIGNIRTGRPDFRFFSLGNCLGAIFDVTSLAQQRSFFRLVLNNQRELCAQMPLRICHPPLKDDDWRSKTGFDRKNLPWCYHNAGHWPCLFWFLVVAVLRHSCHSNYGTVEYAEMGNLIRNNYEVLLRRLPKHKWAEYFDGPTGFWVGQQSRSYQTWTIVGLLLVHHFTEVNPDDALMFDLPSLKSLHQALHLEHHHHHH | not soluble
20 | NGLVDSMIKNAIAWQTSHLQIHQSAYLVNPELKDTIPDSQSIVTTLDKHQSVKAVSERFLADGMIASARSSRGIRINGIHLEQEQKITPLSEHIIDGYWLDEEGRNPILVSQKTAKRLKLRVGSKVILTLSDINGDVSGAAFRVKGIFKTPSTTFDDGNVYVRKADLEKIAGIAGAHEIAILLNANDDDVLQNIVSFTRTLTDDGSGKPLTVRTWLEIQPLLSTMMSSMDISNQ | not soluble
21 | MGKVYKKVELVGTSEEGLEAAIQAALARARKTLRHLDFFEVKEIRGTIGEAGVKEYQVVLEVGFRLEET | soluble
